Data: patent US20200199241A1 (Chugai, published 2020)
Read-outs that look alike come from different tables or passages of the source.

How the values were obtained:
human FcγRIIa(R) = target: T1, human FcγRIIa(R) (human, UniProt P12318 36-217); test: SPR, antibody captured by Protein L, human FcγR as analyte, pH 7.4, 25 C;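 further: biacore T100 or T200 with Protein L amine-coupled on a CM4 chip, FcγRs diluted in ACES saline with polysorbate 20, buffer-only injection as blank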
T1 construct: also called hFcgRIIa(R); FcγRIIa type R
T1 chain: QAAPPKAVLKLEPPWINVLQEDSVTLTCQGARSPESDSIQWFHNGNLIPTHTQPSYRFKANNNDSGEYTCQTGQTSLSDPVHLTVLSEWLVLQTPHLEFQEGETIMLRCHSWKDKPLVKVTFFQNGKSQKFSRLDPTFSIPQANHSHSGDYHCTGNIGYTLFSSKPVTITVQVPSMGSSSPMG

human FcγRIa = target: T2, human FcγRIa (human, UniProt P12314 16-292, limits assumed); test: as above
T2 construct: also called hFcgRIa; hFcgRI

human FcγRIIb = target: T3, human FcγRIIb (human, UniProt P31994 43-217, limits assumed); test: as above
T3 construct: also called hFcgRIIb; FcγIIB
T3 sequence: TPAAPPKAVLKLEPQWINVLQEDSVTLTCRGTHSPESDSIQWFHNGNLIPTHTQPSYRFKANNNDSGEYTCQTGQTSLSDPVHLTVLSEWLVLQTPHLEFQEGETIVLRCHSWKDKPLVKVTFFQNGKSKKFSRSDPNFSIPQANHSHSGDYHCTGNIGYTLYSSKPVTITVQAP

human FcγRIIIa(V) = target: T4, human FcγRIIIa(V) (human, UniProt P08637 17-208, limits assumed); test: as above
T4 construct: also called hFcgRIIIa(V); allotype V158

human FcγRIIa(H) = target: T5, human FcγRIIa(H) (human, UniProt P12318 36-217); test: as above
T5 construct: also called hFcgRIIa(H); FcγRIIa type H
T5 sequence: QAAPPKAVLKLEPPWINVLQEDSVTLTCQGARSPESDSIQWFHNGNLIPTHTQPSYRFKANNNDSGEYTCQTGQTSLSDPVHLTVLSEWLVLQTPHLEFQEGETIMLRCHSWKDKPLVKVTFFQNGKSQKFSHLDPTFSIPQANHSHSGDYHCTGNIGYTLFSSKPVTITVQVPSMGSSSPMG

mouse FcγRIII [1] = target: T6, mouse FcγRIII (mouse, UniProt P08508 31-215); test: SPR, antibody captured by Protein L, mouse FcγR as analyte, pH 7.4, 25 C; parameters: unit not given here
T6 construct: bought; also called mFcgRIII; mFcgR III
T6 sequence (looked up): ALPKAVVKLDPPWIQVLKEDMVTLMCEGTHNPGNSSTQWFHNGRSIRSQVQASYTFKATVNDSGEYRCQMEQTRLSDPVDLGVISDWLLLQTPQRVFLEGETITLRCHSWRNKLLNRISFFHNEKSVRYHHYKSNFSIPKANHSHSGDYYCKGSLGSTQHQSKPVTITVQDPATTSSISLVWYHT

mouse FcγRI [2] = target: T7, mouse FcγRI (mouse, UniProt P26151 25-297); test: as above; parameters: unit not given here
T7 construct: bought; also called mFcgRI; mFcgR 1
T7 sequence (looked up): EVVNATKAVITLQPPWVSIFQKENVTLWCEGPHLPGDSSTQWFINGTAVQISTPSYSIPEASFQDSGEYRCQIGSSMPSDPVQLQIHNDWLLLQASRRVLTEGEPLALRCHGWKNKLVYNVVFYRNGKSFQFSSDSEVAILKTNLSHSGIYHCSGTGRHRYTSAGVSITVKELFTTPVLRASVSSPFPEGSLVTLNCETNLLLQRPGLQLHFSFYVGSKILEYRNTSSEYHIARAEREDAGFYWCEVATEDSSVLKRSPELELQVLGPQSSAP

mouse FcγRIIb [3] = target: T8, mouse FcγRIIb (mouse, UniProt P08101 30-207, limits assumed); test: as above; parameters: unit not given here
T8 construct: bought; also called mFcgRIIb; mFcgR IIb
T8 sequence (looked up): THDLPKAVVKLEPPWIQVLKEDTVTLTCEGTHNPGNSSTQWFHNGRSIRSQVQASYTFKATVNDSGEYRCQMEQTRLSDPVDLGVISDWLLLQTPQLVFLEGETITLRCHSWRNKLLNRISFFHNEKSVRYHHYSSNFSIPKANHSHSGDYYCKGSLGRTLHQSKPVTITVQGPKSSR

mouse FcγRIV [4] = target: T9, mouse FcγRIV (mouse, UniProt A0A0B4J1G0 21-203); test: as above; parameters: unit not given here
T9 construct: bought; also called mFcgRIV; mFcgR IV; the vendor's purification tag not given
T9 sequence: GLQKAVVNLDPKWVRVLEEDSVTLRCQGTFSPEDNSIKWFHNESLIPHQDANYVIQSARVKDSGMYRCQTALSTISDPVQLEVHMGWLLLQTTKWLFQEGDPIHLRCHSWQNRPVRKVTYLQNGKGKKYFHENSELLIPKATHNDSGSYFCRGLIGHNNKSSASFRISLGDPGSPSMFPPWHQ

[5] = target: T10, human FcRn (soluble human FcRn complexed with β2-microglobulin) (human, UniProt P61769 21-119, limits assumed); test: SPR, antibody captured by Protein L, human FcRn as analyte, pH 7.0, 25 C
T10 construct: also called hFcRn

[6] = target: T10, human FcRn (soluble human FcRn …); test: as above; remark: listed apart in the source
mouse FcγRIII [7] = target: T6, mouse FcγRIII; test: SPR, antibody captured by Protein L, mouse FcγR as analyte, pH 7.4, 25 C
mouse FcγRI [8] = target: T7, mouse FcγRI; test: as above
mouse FcγRIIb [9] = target: T8, mouse FcγRIIb; test: as above
mouse FcγRIV [10] = target: T9, mouse FcγRIV; test: as above
[11] = target: T10, human FcRn (soluble human FcRn …); test: SPR, antibody captured by Protein L, human FcRn as analyte, pH 7.0, 25 C; remark: listed apart in the source

T10 sequence (chain, as listed by the source limits assumed, chain 1 of 2): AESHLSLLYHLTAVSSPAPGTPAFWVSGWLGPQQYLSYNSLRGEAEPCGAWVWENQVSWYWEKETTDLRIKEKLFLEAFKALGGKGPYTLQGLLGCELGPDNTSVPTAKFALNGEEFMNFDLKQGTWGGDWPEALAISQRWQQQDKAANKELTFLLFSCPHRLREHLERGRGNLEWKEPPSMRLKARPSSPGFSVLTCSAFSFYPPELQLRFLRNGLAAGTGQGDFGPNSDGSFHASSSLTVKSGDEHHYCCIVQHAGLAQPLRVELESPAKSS
T10 sequence (P61769 21-119 limits assumed, chain 2 of 2): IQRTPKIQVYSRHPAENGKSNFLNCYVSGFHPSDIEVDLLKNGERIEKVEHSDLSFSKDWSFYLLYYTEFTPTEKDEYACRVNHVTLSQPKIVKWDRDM
T4 sequence (P08637 other isoform, or with tags, fused parts or gaps limits assumed): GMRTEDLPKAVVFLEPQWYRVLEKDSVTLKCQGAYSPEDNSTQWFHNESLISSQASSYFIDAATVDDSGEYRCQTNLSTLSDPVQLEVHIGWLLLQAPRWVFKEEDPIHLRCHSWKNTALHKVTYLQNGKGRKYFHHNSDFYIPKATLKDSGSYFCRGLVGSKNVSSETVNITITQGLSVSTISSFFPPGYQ
T2 sequence (P12314 16-292 limits assumed): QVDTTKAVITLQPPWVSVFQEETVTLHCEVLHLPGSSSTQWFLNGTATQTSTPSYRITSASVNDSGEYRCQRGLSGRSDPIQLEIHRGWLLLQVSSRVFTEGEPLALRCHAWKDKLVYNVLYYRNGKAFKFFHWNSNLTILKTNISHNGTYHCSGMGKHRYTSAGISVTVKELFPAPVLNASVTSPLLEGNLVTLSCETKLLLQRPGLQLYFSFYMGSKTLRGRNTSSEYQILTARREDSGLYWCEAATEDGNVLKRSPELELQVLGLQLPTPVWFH

B1: antibody with VH3-IgG1-F947 heavy chain and L(WT)-CK light chain (antibody)
heavy: QVQLQESGPGLVKPSETLSLTCAVSGHSISHDHAWSWVRQPPGEGLEWIGFISYSGITNYNPSLQGRVTISRDNSKNTLYLQMNSLRAEDTAVYYCARSLARTTAMDYWGEGTLVTVSSASTKGPSVFPLAPSSKSTSGGTAALGCLVKDYFPEPVTVSWNSGALTSGVHTFPAVLQSSGLYSLSSVVTVPSSSLGTQTYICNVNHKPSNTKVDKKVEPKSCDKTHTCPPCPAPELLGGPSVFLFPPKPKDVLYISRTPEVTCVVVDVSHEDPEVKFNWYVDGVEVHNAKTKPREEQYNSTYRVVSVLQPLHADWLNGKEYKCKVSNKALPAPIEKTISKAKGQPREPQVYTLPPSRDELTKNQVSLTCLVKGFYPSDIAVEWESNGQPENNYKTTPPVLDSDGSFFLYSKLTVDKSRWQQGNVFSCSVMHEALHYHVTQKSLSLSP
light: not shown
notes: T250V/M252Y/T307Q/V308P/Q311A/N434Y/Y436V; copies: 2 + 2
For B1, the “BINDING AMOUNT (RU)” value (human FcγRIIa(R)) was 148 RU, the “BINDING AMOUNT (RU)” value (human FcγRIa) was 368 RU and the “BINDING AMOUNT (RU)” value (human FcγRIIb) was 70.6 RU. The “BINDING AMOUNT (RU)” value (human FcγRIIIa(V)) was 221 RU, the “BINDING AMOUNT (RU)” value (human FcγRIIa(H)) was 154 RU and the “binding amount” value (mouse FcγRIII [1]) was 664. The “binding amount” value (mouse FcγRI [2]) was 329, the “binding amount” value (mouse FcγRIIb [3]) was 129 and the “binding amount” value (mouse FcγRIV [4]) was 279. For the same binder, the Kd [5] was 11 nM, the Kd [6] was 11 nM and the “BINDING AMOUNT (RU)” value (mouse FcγRIII [7]) was 382 RU. The “BINDING AMOUNT (RU)” value (mouse FcγRI [8]) was 299 RU, the “BINDING AMOUNT (RU)” value (mouse FcγRIIb [9]) was 117 RU and the “BINDING AMOUNT (RU)” value (mouse FcγRIV [10]) was 242 RU. The Kd [11] was 11 nM.
